Data from patent US20250270323A1 (NEXTPOINT THERAPEUTICS, published 2025).
Residue numbers refer to the chain shown, from its start. Blank lines part the entries; values can stand above or below the molecule they belong to.

Columns and labels:
[1] = molecular target: human HHLA2 over-expressed on 300.19 mouse pre-B leukemic cells (human) (UniProt Q9UM44); experiment: flow cytometry; 10 ug/mL control IgG with 4 ug/mL biotinylated human TMIGD2-Fc, added to 300.19 HHLA2 cells
[2] = molecular target: human HHLA2 over-expressed on 300.19 mouse pre-B leukemic cells (human) (UniProt Q9UM44); experiment: flow cytometry; 15 ug/ml antibody on 300.19-human HHLA2 cells, PE-conjugated anti-human secondary antibody
[3] = molecular target: human HHLA2 over-expressed on 300.19 mouse pre-B leukemic cells (human) (UniProt Q9UM44); experiment: flow cytometry; TMIGD2-Fc binding to 300.19 HHLA2 cells with 10 ug/mL control IgG, against antigen only
[4] = molecular target: T1, biotinylated human HHLA2-Fc (human, UniProt Q9UM44 23-344, limits assumed, biotinylated (sites not given)); experiment: flow cytometry blocking assay; 10 ug/mL control IgG with 4 ug/mL biotinylated human HHLA2-Fc, added to 300.19 KIR3DL3 cells
T1 construct: It may be the same protein as m8 with biotin added; not shown: Fc part
T1 sequence (looked up): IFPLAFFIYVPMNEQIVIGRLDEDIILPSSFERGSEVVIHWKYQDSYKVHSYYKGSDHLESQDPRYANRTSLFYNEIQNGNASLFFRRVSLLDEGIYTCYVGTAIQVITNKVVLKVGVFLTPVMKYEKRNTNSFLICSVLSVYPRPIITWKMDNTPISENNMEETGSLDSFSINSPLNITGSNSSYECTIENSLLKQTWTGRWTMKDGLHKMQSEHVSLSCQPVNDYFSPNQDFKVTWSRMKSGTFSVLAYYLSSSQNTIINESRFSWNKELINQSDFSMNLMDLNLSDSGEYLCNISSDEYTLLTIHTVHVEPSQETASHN

[5] = molecular target: T1, biotinylated human HHLA2-Fc; experiment: flow cytometry blocking assay; HHLA2-Fc binding to 300.19 KIR3DL3 cells with 10 ug/mL control IgG, against antigen only
recombinant HHLA2-Fc = molecular target: T2, recombinant HHLA2-Fc (UniProt Q9UM44 23-344, limits assumed); experiment: BLI (Octet, ForteBio); IgG captured on AHC sensor, 100 nM HHLA2-Fc in solution; avid
T2 construct: Antigen in solution in the Octet assay; also called HHLA2-Fc antigen; not shown: Fc part
T2 sequence (looked up): T1 sequence (looked up)
From the text: The avid affinity of the anti-HHLA2 antibodies for recombinant HHLA2-Fc was investigated. The Octet system from ForteBio was used to measure avid affinity of the anti-HHLA2 antibodies for recombinant HHLA2-Fc.

[6] = molecular target: human HHLA2 over-expressed on 300.19 mouse pre-B leukemic cells (human) (UniProt Q9UM44); experiment: flow cytometry; 10 ug/mL IgG with 4 ug/mL biotinylated human TMIGD2-Fc, added to 300.19 HHLA2 cells; streptavidin-Alexa Fluor 633; binding is enhanced
[7] = molecular target: T1, biotinylated human HHLA2-Fc; experiment: flow cytometry blocking assay; HHLA2-Fc binding to 300.19 KIR3DL3 cells with 10 ug/mL IgG, against antigen only
Description: The ability of the anti-HHLA2 antibodies to block binding of HHLA2 to KIR3DL3 and enhance binding of HHLA2 to TMIGD2 was investigated. […] Alexa Fluor 633 conjugated streptavidin was added as a secondary detection reagent.

[8] = molecular target: human HHLA2 over-expressed on 300.19 mouse pre-B leukemic cells (human) (UniProt Q9UM44); experiment: flow cytometry; TMIGD2-Fc binding to 300.19 HHLA2 cells with 10 ug/mL IgG, against antigen only; binding is enhanced
[9] = molecular target: T1, biotinylated human HHLA2-Fc; experiment: flow cytometry blocking assay, antibody titration: binding of human HHLA2-Fc to 300.19 cells over-expressing human KIR3DL3 (blocked partner), gMFI (anti-SA-APC)
recombinant HHLA2-His = molecular target: T3, recombinant HHLA2-His (UniProt Q9UM44 23-344, limits assumed); experiment: SPR (Biacore, Cytiva); antibody captured on CM5 chip, HHLA2-His as analyte; monovalent
T3 construct: Analyte in the Biacore assay; also called HHLA2-His analyte; not shown: His tag
T3 sequence (looked up): T1 sequence (looked up)
Description: Monovalent affinity was determined by capturing each antibody on an CM5 chip, followed by various concentrations of the HHLA2-His analyte.

[10] = molecular target: human HHLA2 over-expressed on 300.19 mouse pre-B leukemic cells (human) (UniProt Q9UM44); experiment: flow cytometry on 300.19 cells over-expressing human HHLA2, antibody titration, gMFI (aHu-APC)
Target sequence in this assay (Q9UM44 23-414): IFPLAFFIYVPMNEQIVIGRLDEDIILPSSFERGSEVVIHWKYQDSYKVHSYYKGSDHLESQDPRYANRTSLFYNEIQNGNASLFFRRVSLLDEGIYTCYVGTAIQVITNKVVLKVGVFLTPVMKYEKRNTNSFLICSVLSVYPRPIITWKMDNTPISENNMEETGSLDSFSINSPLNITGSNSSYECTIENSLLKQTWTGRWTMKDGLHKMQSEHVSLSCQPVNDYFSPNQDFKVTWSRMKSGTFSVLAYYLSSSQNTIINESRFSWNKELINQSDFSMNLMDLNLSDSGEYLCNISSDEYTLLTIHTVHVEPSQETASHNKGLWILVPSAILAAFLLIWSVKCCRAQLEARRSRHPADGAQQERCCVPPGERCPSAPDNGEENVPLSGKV

[11] = molecular target: human HHLA2 over-expressed on 300.19 mouse pre-B leukemic cells (human) (UniProt Q9UM44); experiment: flow cytometry, antibody titration: binding of human TMIGD2-Fc (enhanced ligand) to 300.19 cells over-expressing human HHLA2, % TMIGD2-Fc binding normalized to isotype

- Kd (recombinant HHLA2-Fc): 0.971 nM
- koff (recombinant HHLA2-Fc): 0.000189 s⁻¹
- kon (recombinant HHLA2-Fc): 194000 M⁻¹ s⁻¹
- 300.19-human HHLA2 cells FOB (fold over background) (fold over background) [2]: 820
- 300.19-human HHLA2 cells MFI [2]: 115000 MFI
- Human TMIGD2-Fc Binding MFI for 300.19 HHLA2 cells [6]: 1860 MFI
- Antigen Binding MFI Ratio (IgG blocked/antigen only) [7]: 0 ratio
- Antigen Binding MFI Ratio (IgG blocked/antigen only) [8]: 3.1
B1: Ab-60665 (antibody, human IgG4 S228P, kappa, V domains shown)
VH: QVQLVQSGAEVKKPGSSVKVSCKASGGTSSNYAISWVRQAPGQGLEWMGGIIPIFGTANYAQKFQGRVTITADESTSTAYMELSSLRSEDTAVYYCARSGTIWHDIWGQGTMVTVSS
VL: EIVLTQSPATLSLSPGERATLSCRASQSVSSYLAWYQQKPGQAPRLLIYDSSNRATGIPARFSGSGSGTDFTLTISSLEPEDFAVYYCQQVVHWPPTFGGGTKVEIKR
notes: tested as IgG

- EC50 (read off the curve) [11]: 0.1 µg/mL
- IC50 (read off the curve) [9]: ~1 µg/mL
- Kd (recombinant HHLA2-His): 0.894 nM
- koff (recombinant HHLA2-His): 0.000114 s⁻¹
- kon (recombinant HHLA2-His): 128000 M⁻¹ s⁻¹
- EC50 (read off the curve) [10]: 0.1 µg/mL
B5: Ab-65889 (antibody, human IgG1, kappa, V domains shown)
VH: QVQLVQSGAEVKKPGASVKVSCKASGYTFASYKMHWVRQAPGQRLEWMGDIPAGTGNTHYSQKFQGRVTITRDTSASTAYMELSSLRSEDTAVYYCARDRGGYYYDSWDDWGQGTLVTVSS
VL: DIQMTQSPSSLSASVGDRVTITCRASQSISSYLNWYQQKPGKAPKLLIYGASSLQSGVPSRFSGSGSGTDFTLTISSLQPEDFATYYCQQVPFEPPTFGGGTKVEIKR
notes: tested as IgG

The next lines start with the molecule.

Molecule: Isotype control (antibody)
- Human TMIGD2-Fc Binding MFI for 300.19 HHLA2 cells [1]: 943 MFI
- 300.19-human HHLA2 cells FOB (fold over background) (fold over background) [2]: 22
- 300.19-human HHLA2 cells MFI [2]: 3290 MFI
- Antigen Binding MFI Ratio (IgG blocked/antigen only) [3]: 1.6
- Human HHLA2-Fc Binding MFI for 300.19 KIR3DL3 cells [4]: 6990 MFI
- Antigen Binding MFI Ratio (IgG blocked/antigen only) [5]: 0.9

B2: Ab-65890 (antibody, human IgG1, V domains shown)
VH: B5 VH with A30N, K33R, D50S, H59V
VL: DIQMTQSPSSLSASVGDRVTITCRASQSISSYLNWYQQKPGKAPKLLIYGASSLQSGVPSRFSGSGSGTDFTLTISSLQPEDFATYYCQQVPFEPPTFGGGTKVEIK
notes: tested as IgG
- IC50 (read off the curve) [9]: ~1 µg/mL
- Kd (recombinant HHLA2-His): 0.765 nM
- koff (recombinant HHLA2-His): 9.28e-05 s⁻¹
- kon (recombinant HHLA2-His): 123000 M⁻¹ s⁻¹
- EC50 (read off the curve) [10]: 0.1 µg/mL

B3: Ab-65886 (antibody, human IgG1, kappa, V domains shown)
VH: B5 VH with A30E, S31K, K33A, D50F, H59K
VL: B5 VL with P92A, E94T
notes: tested as IgG
- IC50 (read off the curve) [9]: ~1 µg/mL
- Kd (recombinant HHLA2-His): 11.3 nM
- koff (recombinant HHLA2-His): 0.00688 s⁻¹
- kon (recombinant HHLA2-His): 609000 M⁻¹ s⁻¹
- EC50 (read off the curve) [10]: 0.1 µg/mL

B4: Ab-65885 (antibody, human IgG1, kappa, V domains shown)
VH: B5 VH with A30D, D50Y, H59K
VL: B5 VL with P92A, E94T
notes: tested as IgG
- IC50 (read off the curve) [9]: ~1 µg/mL
- Kd (recombinant HHLA2-His): 5.82 nM
- koff (recombinant HHLA2-His): 0.00205 s⁻¹
- kon (recombinant HHLA2-His): 325000 M⁻¹ s⁻¹
- EC50 (read off the curve) [10]: 0.1 µg/mL

B6: Ab-65887 (antibody, human IgG1, kappa, V domains shown)
VH: B5 VH with A30E, S31Q, K33A, D50F, H59K, Y104W
VL: B5 VL with P92V, E94T
notes: tested as IgG
- IC50 (read off the curve) [9]: ~1 µg/mL
- Kd (recombinant HHLA2-His): 16.5 nM
- koff (recombinant HHLA2-His): 0.0148 s⁻¹
- kon (recombinant HHLA2-His): 900000 M⁻¹ s⁻¹
- EC50 (read off the curve) [10]: 0.1 µg/mL

B7: Ab-60638 (antibody, human IgG4 S228P, kappa, V domains shown)
VH: QVQLVQSGAEVKKPGASVKVSCKASGYTFTSYAMHWVRQAPGQRLEWMGWINAGTGNTKYSQKFQGRVTITRDTSASTAYMELSSLRSEDTAVYYCARDLPHRGAFDPWGQGTLVTVSS
VL: EIVLTQSPGTLSLSPGERATLSCRASQSVSSDYLAWYQQKPGQAPRLLIYGASSRATGIPDRFSGSGSGTDFTLTISRLEPEDFAVYYCQLYGSAPRTFGGGTKVEIKR
notes: tested as IgG
- Kd (recombinant HHLA2-Fc): 1.42 nM
- koff (recombinant HHLA2-Fc): 0.000469 s⁻¹
- kon (recombinant HHLA2-Fc): 330000 M⁻¹ s⁻¹
- 300.19-human HHLA2 cells FOB (fold over background) (fold over background) [2]: 394
- 300.19-human HHLA2 cells MFI [2]: 46900 MFI
- Human TMIGD2-Fc Binding MFI for 300.19 HHLA2 cells [6]: 2730 MFI
- Antigen Binding MFI Ratio (IgG blocked/antigen only) [7]: 0 ratio
- Antigen Binding MFI Ratio (IgG blocked/antigen only) [8]: 4.5
